# Numbering of substitutions follows the chain as printed.
# T1: Human PTK7 Protein, His Tag (Acro Biosystems) (human, UniProt Q13308 31-704)
# T1 construct: Bought His-tagged protein; also called CCK4; not shown: His tag
# T1 sequence: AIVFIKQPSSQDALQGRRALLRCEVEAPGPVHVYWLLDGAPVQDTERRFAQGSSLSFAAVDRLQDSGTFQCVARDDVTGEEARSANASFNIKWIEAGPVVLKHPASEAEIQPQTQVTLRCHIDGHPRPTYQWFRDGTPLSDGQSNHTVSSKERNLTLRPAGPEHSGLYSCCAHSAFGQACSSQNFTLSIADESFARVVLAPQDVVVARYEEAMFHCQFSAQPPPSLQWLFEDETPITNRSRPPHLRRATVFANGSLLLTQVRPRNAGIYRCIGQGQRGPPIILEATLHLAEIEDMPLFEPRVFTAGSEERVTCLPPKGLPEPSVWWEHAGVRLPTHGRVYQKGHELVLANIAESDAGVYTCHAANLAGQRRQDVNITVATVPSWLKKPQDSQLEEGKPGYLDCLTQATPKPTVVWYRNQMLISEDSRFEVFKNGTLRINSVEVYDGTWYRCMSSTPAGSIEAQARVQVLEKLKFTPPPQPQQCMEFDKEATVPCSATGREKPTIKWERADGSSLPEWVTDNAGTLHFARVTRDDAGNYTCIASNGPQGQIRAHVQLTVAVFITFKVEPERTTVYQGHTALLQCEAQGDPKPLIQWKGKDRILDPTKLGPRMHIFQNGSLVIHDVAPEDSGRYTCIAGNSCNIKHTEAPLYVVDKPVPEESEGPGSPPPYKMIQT
# T2: Human PTK7 Protein, His Tag, Acro Biosystems (human, UniProt Q13308 31-704)
# T2 construct: Bought recombinant protein; also called CCK4; not shown: His tag
# T2 sequence: T1 sequence
# B1: MYT11093 (antibody, V domains shown)
# VH: EVQLVESGGGLVQPGGSLRLSCTASGLSLSSYWMSWVRQAPGKGLEWVGVISAGGNTYYANWAKGRFTISRDTSKNTVYLQMNSLRAEDTAVYFCARGDDGYTNAAYVSNLWGQGTLVTVSS
# VL: EIVMTQSPSTLSASVGDRVIITCQASQSISSWLSWYQQKPGKAPKLLIYKASTLASGVPSRFSGSGSGAEFTLTISSLQPDDFATYYCQSYHDSTTIAFGQGTKLTVL
# notes: MYT9361 LC variant
# B2: MYT11289 (antibody, V domains shown)
# VH: EVQLVESGGGLVQPGGSLRLSCTASGIDLSRYSMGWVRQAPGKGLEWVGIISYGGSTYYASWAKGRFTISRDTSKNTVYLQMNSLRAEDTAVYFCARVGYPGYSHYGYAFDAFDPWGQGTLVTVSS
# VL: EIVMTQSPSTLSASVGDRVIITCQSSKSVYNDNWLSWYQQKPGKAPKLLIYGASTLASGVPSRFSGSGSGAEFTLTISSLQPDDFATYYCAGGYSSSSDNGFGQGTKLTVL
# B3: MYT11309 (antibody, V domains shown)
# VH: B2 VH with H105G
# VL: B2 VL with V29H
# notes: MYT9792 variant, His at VL 29 (L1 06)
# B4: MYT11322 (antibody, V domains shown)
# VH: B2 VH with H105G
# VL: B2 VL with A57H
# notes: MYT9792 variant, His at VL 57 (L2 06)
# Experiments:
# [1] = biological target: T1, Human PTK7 Protein, His Tag (Acro …); assay: BLI (Octet), antibody on anti-human Fc sensor, 50 nM PTK7; grade 1 = pH dependent binding relative to parent
# [2] = biological target: T2, Human PTK7 Protein, His Tag, Acro …; assay: BLI, anti-human Fc capture, 50 nM PTK7; 1 = pH dependent binding relative to parent
Binder,binding result [1],binding result [2]
B1,binds,
B2,,binds
B3,,binds
B4,,binds

# Source: patent US20260209386A1 (MYTHIC THERAPEUTICS, published 2026)
